Laboratory results published in article PMC8354235 (Journal of Virology, 2021).
Values joined by “and” are separate entries in the source; they are usually repeats but may differ in a detail not shown here. Identical values can stand only once.

B1: OKT9 antigen binding fragment (OKT9-Fab) (Fab, V domains shown)
VH: QIQLQQSGPELVKPGTSMNISCKASGYTFTNYYMHWVRQRPGQGLEWIGWIYPGDGNTHYNEKFKGKTTLTADTSSITAYMLLSSLTSEDSAVYFCARDNSGYVGFPYWGQGTLVTVSA
VL: DIVMTQSPSSLTVTAGERVTMSCKSSQSLFNSANQENYLTWYQQRPGQPPKLLIYWASTRDSGVPDRFTGSGSGTDFTLTISSVQAEDLAVYYCQNDYSYPLTFGAGTKLELK
notes: also called Fab OKT9; OKT9 variable region
B2: murine monoclonal antibody OKT9 (full-length IgG1) (antibody, V domains shown)
VH: QIQLQQSGPELVKPGTSMNISCKASGYTFTNYYMHWVRQRPGQGLEWIGWIYPGDGNTHYNEKFKGKTTLTADTSSITAYMLLSSLTSEDSAVYFCARDNSGYVGFPYWGQGTLVTVSA
VL: DIVMTQSPSSLTVTAGERVTMSCKSSQSLFNSANQENYLTWYQQRPGQPPKLLIYWASTRDSGVPDRFTGSGSGTDFTLTISSVQAEDLAVYYCQNDYSYPLTFGAGTKLELK
notes: also called full-length OKT9

Legend:
[1] = target: T1, histidine-tagged soluble extracellular domain of human transferrin receptor 1 (sTfR1) from BHK cells (human, UniProt P02786); assay: ELISA; details: both partners purified
T1 construct: also called hTfR1; sTfR1-His
T1 sequence (P02786 89-760): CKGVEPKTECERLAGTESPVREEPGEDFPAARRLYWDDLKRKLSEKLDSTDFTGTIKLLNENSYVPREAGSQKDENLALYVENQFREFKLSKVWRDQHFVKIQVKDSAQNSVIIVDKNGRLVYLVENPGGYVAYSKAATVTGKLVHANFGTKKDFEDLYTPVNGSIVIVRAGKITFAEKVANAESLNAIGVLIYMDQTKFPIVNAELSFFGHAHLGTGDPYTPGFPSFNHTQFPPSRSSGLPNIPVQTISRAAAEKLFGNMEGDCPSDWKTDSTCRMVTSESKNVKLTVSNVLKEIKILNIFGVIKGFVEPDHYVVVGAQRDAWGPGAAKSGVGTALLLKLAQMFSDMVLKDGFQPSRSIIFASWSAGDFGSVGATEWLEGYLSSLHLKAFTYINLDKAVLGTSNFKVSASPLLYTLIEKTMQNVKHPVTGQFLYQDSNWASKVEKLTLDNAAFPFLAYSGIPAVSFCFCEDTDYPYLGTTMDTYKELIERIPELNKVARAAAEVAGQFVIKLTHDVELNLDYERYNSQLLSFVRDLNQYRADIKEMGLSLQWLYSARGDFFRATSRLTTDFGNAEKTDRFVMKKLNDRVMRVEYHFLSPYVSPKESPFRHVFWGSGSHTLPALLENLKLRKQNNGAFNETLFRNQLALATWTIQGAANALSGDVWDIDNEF

[2] = target: T1, histidine-tagged soluble extracellular …; assay: BLI; details: both partners purified

| Binder | EC50 [1] | Kd [2] | koff [2] |
| --- | --- | --- | --- |
| B1 | 3.69 nM and ~3.66 nM | 4.9 nM and 4.78 nM and 4.76 nM and 4.82 nM | 0.0012 s⁻¹ and 0.00125 s⁻¹ and 0.00114 s⁻¹ |
| B2 | 0.411 nM | – | – |
